From paper PMC7125023

Target: anti-RSV 2Fc mAb (dual Fc human IgG1, clone B21M variable regions) (human)
Experiment: SPR

Kd [nM] | stoichiometry N | Substance
1.82 | 2.12 FcR:mAb | human FcγRI (from UniProt P12314 16-292) (receptor)
121 | 4.17 FcR:mAb | human neonatal Fc receptor (FcRn) (from UniProt P55899 24-297)
